Values quoted from earlier work in patent US20120225099A1, “COMPOSITIONS FOR AND METHODS OF […] CYCLASE C” (Thomas Jefferson University, priority 2009, published 2012).
Ends that are not written are not given here.

Target: guanylate cyclase (ST receptors) (Homo sapiens, UniProt P25092)
Settings: relative to native ST; about

Sequence of guanylate cyclase (ST receptors) (P25092 24-1073): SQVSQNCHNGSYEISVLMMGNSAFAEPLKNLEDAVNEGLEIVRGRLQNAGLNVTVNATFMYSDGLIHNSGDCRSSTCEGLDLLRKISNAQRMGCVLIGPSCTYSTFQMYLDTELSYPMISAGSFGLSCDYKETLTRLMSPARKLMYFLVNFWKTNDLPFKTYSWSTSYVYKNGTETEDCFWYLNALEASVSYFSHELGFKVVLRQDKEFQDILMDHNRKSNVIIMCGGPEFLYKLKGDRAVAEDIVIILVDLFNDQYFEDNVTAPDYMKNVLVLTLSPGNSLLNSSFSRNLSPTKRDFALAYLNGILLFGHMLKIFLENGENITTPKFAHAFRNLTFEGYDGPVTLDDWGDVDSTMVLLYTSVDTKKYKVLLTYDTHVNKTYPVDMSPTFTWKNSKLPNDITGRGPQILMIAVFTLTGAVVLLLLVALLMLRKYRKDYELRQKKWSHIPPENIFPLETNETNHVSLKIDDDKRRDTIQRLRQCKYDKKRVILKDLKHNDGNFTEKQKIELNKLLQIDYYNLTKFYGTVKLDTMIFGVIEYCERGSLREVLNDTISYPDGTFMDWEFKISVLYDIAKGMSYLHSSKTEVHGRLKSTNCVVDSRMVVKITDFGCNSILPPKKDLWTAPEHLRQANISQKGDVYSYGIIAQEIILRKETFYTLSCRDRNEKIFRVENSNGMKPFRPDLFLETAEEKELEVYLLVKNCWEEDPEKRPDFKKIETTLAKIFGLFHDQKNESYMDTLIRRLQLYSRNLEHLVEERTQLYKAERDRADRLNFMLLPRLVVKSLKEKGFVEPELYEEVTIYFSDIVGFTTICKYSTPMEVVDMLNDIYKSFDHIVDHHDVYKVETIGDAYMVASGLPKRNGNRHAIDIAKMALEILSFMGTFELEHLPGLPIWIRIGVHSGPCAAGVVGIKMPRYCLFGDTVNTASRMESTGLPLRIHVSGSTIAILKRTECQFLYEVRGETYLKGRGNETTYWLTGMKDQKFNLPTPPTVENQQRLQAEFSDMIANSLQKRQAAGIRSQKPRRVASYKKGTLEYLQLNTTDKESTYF

Sequence: PNTCEICAYAACTGC (cysteine pairing not given here) [Guanylin, 15 amino acid peptide identified in mammalian intestine; native GCC ligand]
- activates guanylate cyclase at a level less than native ST: 10- to 100 fold
